From article PMC4888843 (Genes & Development, 2016) come the findings set out here.

B1: mouse Bcl-xLΔC24 (domain or fragment)
chain: MSQSNRELVVDFLSYKLSQKGYSWSQFSDVEENRTEAPEETEAERETPSAINGNPSWHLADSPAVNGATGHSSSLDAREVIPMAAVKQALREAGDEFELRYRRAFSDLTSQLHITPGTAYQSFEQVVNELFRDGVNWGRIVAFFSFGGALCVESVDKEMQVLVSRIASWMATYLNDHLEPWIQENGGWDTFVDLYGNNAAAESRKGQER
B2: loop-deleted human BCL-XL (Δ27–82, ΔC24) (domain or fragment)
chain: MSQSNRELVVDFLSYKLSQKGYSWSQMAAVKQALREAGDEFELRYRRAFSDLTSQLHITPGTAYQSFEQVVNELFRDGVNWGRIVAFFSFGGALCVESVDKEMQVLVSRIAAWMATYLNDHLEPWIQENGGWDTFVELYGNNAAAESRKGQER

The target in one data set is human BCL-XLΔC24 (human, UniProt Q07817-1 1-209). As to the kind of experiment: ELISA. (An ELISA detects its analyte on a solid surface through an enzyme-linked reagent.)
Data set [1] concerns the target B2. Description: crystal structure.
Data set [2] addresses BIM BH3 synthetic peptide. As to the kind of experiment: SPR. (In general: SPR reads the build-up and loss of mass on a sensor chip optically.)
The data set “crystal structure” concerns the molecule itself. Description: crystal structure.
The target in the data set “mouse Bcl-xLΔC24” is B1. As to the kind of experiment: SPR.
Another data set addresses mouse Bcl-xL Y101FΔC24 (mouse, UniProt Q64373-1 1-209, Y101F).
Data set [3] deals with mouse Bcl-xL Y101F/Q111AΔC24 (mouse, UniProt Q64373-1 1-209, Y101F | Q111A).

Some results are limits rather than exact numbers.

The IC50 is the concentration that inhibits the measured activity by half. As for PSSTMGQVGRQLAIIEDDINRRYDSE [phage-displayed human BAK BH3 peptide G82E], in the data set with human BCL-XLΔC24, the IC50 was over 10 µM.

On to PSSTMGQVGRALAIIGDDINRRYDSE [phage-displayed human BAK BH3 peptide Q77A], for which the “fold reduction in binding against wild-type BAK BH3 (from IC50)” value with human BCL-XLΔC24 was found to be 8 fold.

With PSSTMGQVGAQLAIIGDDINRRYDSE [phage-displayed human BAK BH3 peptide R76A], the “fold reduction in binding against wild-type BAK BH3 (from IC50)” value with human BCL-XLΔC24 came out at 4 fold.

With LPLQPSSTMGQVGRQLAIIGDDINRRYDSEFQTM [hBAK BH3 synthetic peptide], the binding result in data set [1] is “binds”.

For the molecule B1, the binding result in data set [2] was “binds”.

Take B2: the binding result in “crystal structure” is reported as “binds”.

With LPLEPNSILGQVGRLLALIGDDINRRYDTEFQNL [mBak Q75L BH3 synthetic peptide], the binding result in data set [1] was “binds”. In addition, the “fold weaker binding than wild-type Bak BH3” value with mouse Bcl-xLΔC24 is about 7 fold.

As to LPLEPNSILGQVGRQLALIGDDINRRYDTEFQNL [mBak BH3 synthetic peptide], the “fold weaker binding than wild-type Bcl-xL” value (in the data set with mouse Bcl-xL Y101FΔC24; in data set [3]) was about 3.5 fold each time.
